Measured values as given in patent US20220332804A1 (CSL INNOVATION, published 2022).
Where a chain is given by its changes, count along the chain named.

Tests used:
[1] = target: T1, Activated human C2 (huC2a) (human, UniProt P06681 244-752); test: SPR, mAb captured, neutral and acidic pH, 0 to 2 mM CaCl2
T1 construct: domain: C2a; also called human C2a
T1 sequence (looked up): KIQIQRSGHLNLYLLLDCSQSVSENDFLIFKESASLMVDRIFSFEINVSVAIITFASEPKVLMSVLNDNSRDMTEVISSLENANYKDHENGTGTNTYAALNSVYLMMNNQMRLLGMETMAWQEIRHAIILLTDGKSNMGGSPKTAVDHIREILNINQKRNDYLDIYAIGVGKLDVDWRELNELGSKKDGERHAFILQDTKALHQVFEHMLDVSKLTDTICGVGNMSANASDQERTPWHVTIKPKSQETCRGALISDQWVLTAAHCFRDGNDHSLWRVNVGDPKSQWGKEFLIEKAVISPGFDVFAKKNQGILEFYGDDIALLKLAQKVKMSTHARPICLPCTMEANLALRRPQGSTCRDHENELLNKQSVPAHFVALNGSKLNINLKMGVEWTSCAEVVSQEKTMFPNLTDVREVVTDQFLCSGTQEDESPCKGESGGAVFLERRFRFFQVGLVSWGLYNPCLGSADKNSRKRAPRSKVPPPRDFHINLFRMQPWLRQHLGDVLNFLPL
Procedure: (§1) Surface plasmon resonance (SPR, Biacore) was used for all binding affinity analyses. In brief, goat anti-human IgG was directly immobilised onto the carboxymethyl dextran surface of CM5 sensorchips to approximately 12,000 RU using standard NHS/EDC chemistry at pH 5. The immobilised antibody surface was pre-conditioned with ten injections of polyclonal human IgG (Privigen 60 s) prepared at 1 μg/mL. Ligands (anti-C2 mAbs) were captured at the beginning of each cycle as described below. An adjacent spot or flow cell in which only Polyclonal IgG was capture was used as a reference surface. The goat anti-human IgG Fc antibody surface was regenerate in 100 mM H3PO4, injected for 45 seconds at the end of each cycle. Experiments were performed at 37° C. and the flow rate of each experiment was kept constant at 30 μL/min.
The effect of calcium on antibody binding was determined with the addition of calcium chloride to the SPR running buffer. Calcium concentrations ranged from zero (i.e. no added calcium, control) to near physiological levels (0.02, 0.2 and 2 mM CaCl₂.2H₂O, MW 147.02 Da). […]
Purified human C2 zymogen was tested in physiological conditions (pH 7.3) at concentrations ranging from 1.9 to 500 nM and in acidic conditions (pH 6) at concentrations ranging from 3.9 to 2000 nM. […] Analyte association and dissociation were monitored for 180 and 600 seconds, respectively. […]

cynomolgus monkey C2 = target: T2, cynomolgus monkey C2 (cynomolgus monkey, UniProt G8F3W0 21-752); test: cell-based or functional assay
T2 sequence: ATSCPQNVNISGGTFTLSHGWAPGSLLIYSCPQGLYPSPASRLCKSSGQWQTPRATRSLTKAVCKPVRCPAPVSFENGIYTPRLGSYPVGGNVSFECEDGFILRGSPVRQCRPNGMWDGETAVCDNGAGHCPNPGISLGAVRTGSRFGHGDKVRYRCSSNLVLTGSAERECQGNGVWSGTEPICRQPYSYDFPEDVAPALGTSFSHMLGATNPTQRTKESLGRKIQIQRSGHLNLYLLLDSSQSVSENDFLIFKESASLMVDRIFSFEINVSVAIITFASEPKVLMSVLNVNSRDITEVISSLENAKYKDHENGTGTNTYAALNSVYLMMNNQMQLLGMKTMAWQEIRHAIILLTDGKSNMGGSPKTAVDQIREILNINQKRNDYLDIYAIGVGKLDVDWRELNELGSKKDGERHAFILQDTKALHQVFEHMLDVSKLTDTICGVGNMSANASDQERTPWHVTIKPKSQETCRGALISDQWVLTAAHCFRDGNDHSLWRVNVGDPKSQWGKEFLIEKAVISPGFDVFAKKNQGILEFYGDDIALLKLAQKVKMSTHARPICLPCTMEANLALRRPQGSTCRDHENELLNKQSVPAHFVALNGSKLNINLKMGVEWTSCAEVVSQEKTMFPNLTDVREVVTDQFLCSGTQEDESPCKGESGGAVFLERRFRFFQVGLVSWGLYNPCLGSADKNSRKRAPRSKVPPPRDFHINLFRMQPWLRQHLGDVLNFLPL

human C2 G414A = target: T3, human C2 G414A (human, UniProt P06681 21-752); test: SPR; KD relative to WT C2;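 note: biacore SPR at 37 °C, anti-C2 mAbs captured on an anti-human IgG chip, alanine or serine C2 surface mutants tested, KD from 1:1 fit compared with wild-type C2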
T3 sequence: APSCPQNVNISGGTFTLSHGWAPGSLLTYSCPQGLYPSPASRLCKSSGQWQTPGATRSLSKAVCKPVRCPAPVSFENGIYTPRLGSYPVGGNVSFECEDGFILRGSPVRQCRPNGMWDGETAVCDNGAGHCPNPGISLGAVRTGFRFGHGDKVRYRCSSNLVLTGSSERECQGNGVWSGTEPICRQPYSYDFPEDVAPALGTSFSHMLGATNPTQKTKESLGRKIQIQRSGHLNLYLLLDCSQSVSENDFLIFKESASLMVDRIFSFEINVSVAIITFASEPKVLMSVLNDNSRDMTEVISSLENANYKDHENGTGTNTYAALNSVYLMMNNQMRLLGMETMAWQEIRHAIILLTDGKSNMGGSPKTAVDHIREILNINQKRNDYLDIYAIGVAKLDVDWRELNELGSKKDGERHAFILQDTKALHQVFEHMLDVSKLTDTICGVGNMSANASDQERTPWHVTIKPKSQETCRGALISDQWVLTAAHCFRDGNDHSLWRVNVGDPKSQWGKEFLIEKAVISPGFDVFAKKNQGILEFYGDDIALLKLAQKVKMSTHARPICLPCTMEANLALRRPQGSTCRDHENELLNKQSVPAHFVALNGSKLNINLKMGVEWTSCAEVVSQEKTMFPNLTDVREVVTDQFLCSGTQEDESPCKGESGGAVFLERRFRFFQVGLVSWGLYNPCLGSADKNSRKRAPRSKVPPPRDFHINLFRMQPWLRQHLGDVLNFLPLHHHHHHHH
Procedure: as §1
(§2) Sensogram data was double-referenced against a reference anti-IgG surface (i.e. minus anti-C2 mAb) and blank buffer injections obtained within each experiment. The binding data was fit to 1:1 (kinetic or steady-state) model using local Rmax and null refraction index (RI=0) when appropriate. Buffers and solutions were filtered (0.22 μm) prior to use.
(§3) The C2 mutants were designed to test the importance of surface exposed residues for antibody binding. Residues located at either the N-terminal VWA domain or C-terminal protease domain of C were replaced by either alanine or serine and tested for binding against anti-C2 antibodies.

human C2 N467A = target: T4, human C2 N467A (human, UniProt P06681 21-752); test: SPR; KD relative to WT C2;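 note: biacore SPR at 37 °C, anti-C2 mAbs captured on an anti-human IgG chip, alanine or serine C2 surface mutants tested, KD from 1:1 fit compared with wild-type C2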
T4 sequence: T3 sequence with A394G, N447A
Procedure: as §1, §2, §3

B1: RF16-226 (antibody)
heavy: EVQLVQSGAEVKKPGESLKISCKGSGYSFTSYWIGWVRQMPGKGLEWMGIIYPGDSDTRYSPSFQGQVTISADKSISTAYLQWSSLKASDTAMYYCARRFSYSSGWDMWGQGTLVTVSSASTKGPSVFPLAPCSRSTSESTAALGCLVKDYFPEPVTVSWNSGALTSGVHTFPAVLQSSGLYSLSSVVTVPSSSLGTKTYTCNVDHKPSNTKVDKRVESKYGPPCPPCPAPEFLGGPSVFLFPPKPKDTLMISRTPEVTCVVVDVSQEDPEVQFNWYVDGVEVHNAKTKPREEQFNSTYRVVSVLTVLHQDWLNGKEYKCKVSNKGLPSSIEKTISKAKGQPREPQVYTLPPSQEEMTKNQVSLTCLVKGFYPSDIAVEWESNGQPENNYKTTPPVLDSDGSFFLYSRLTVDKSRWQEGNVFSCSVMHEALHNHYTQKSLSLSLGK
light: SYELTQPPSVSVSPGQTARITCSGDALTSKYVAWYQQKSGLAPLLVIYEDTRRPSGIPAKFSGSSSGSVATLTISGAHGDDEADYYCYSTDASGHQRVFGGGTKLTVLSQPKAAPSVTLFPPSSEELQANKATLVCLISDFYPGAVTVAWKADGSPVKAGVETTKPSKQSNNKYAASSYLSLTPEQWKSHRSYSCQVTHEGSTVEKTVAPTECS
[1]
  binding result: no binding
Cynomolgus monkey C2
  IC50, inhibition of cynomolgus classical complement pathway (Wieslab assay): 18.8 nM
  IC50, inhibition of cynomolgus lectin complement pathway (Wieslab assay): 140 nM

B2: RF16-214 (antibody, V domains shown)
VH: EVQLLESGGGLVQPGGSLRLSCAASGFTFSWYQMMWVRQAPGKGLEWVSRIYPSGGGTAYADSVKGRFTISRDNSKNTLYLQMNSLRAEDTAVYYCARDAGYGDNWGQGTLVTVSS
VL: QSALTQPPSVSVSPGQTASITCSGDKLGEKYASWYQQKAGQSPVMVIYQDRKRPSGIPERFSGSNSGNTATLTISGTQAMDEADYYCQAWDTRAVVFGGGTKLTVLG
Cynomolgus monkey C2
  IC50, inhibition of cynomolgus classical complement pathway (Wieslab assay): 134 nM
  IC50, inhibition of cynomolgus lectin complement pathway (Wieslab assay): 362 nM
Human C2 G414A
  Fold diff: 0 fold
Human C2 N467A
  Fold diff: 2 fold
